Measured values: the Immune Epitope Database (IEDB)
One block for each sequence: values may come before it.

Columns and labels:
[1] = target: HLA-A*02:01; test: IEDB peptide-MHC binding, purified MHC/competitive/fluorescence; ≥ and ≤ were set here for values at or beyond the usual limits of such assays
[2] = target: HLA-B*15:01; test: as above
[3] = target: HLA-A*24:02; test: as above
[4] = target: HLA-A*01:01; test: IEDB peptide-MHC binding, purified MHC/direct/fluorescence; filed as Kd, often an IC50 or EC50 that approximates it; ≥ and ≤ were set here for values at or beyond the usual limits of such assays
[5] = target: HLA-A*02:01; test: as above
[6] = target: HLA-A*03:01; test: as above
[7] = target: HLA-A*24:03; test: as above
[8] = target: HLA-A*26:01; test: as above
[9] = target: HLA-A*30:01; test: as above
[10] = target: HLA-A*31:01; test: as above
[11] = target: HLA-A*69:01; test: as above
[12] = target: HLA-B*07:02; test: as above
[13] = target: HLA-B*08:01; test: as above
[14] = target: HLA-B*15:01; test: as above
[15] = target: HLA-B*27:05; test: as above
[16] = target: HLA-B*40:01; test: as above
[17] = target: HLA-B*58:01; test: as above
[18] = target: HLA-A*23:01; test: as above
[19] = target: HLA-A*11:01; test: as above
[20] = target: HLA-B*35:01; test: IEDB peptide-MHC binding, purified MHC/competitive/fluorescence; filed as Kd, often an IC50 or EC50 that approximates it; ≥ and ≤ were set here for values at or beyond the usual limits of such assays; settings: source organism: Influenza A virus H3N2
[21] = target: HLA-C*15:02; test: IEDB peptide-MHC binding, purified MHC/direct/fluorescence; filed as Kd, often an IC50 or EC50 that approximates it; ≥ and ≤ were set here for values at or beyond the usual limits of such assays
[22] = target: HLA-A*03:01; test: IEDB peptide-MHC binding, purified MHC/competitive/fluorescence; ≥ and ≤ were set here for values at or beyond the usual limits of such assays
[23] = target: HLA-A*11:01; test: as above
[24] = target: HLA-C*05:01; test: IEDB peptide-MHC binding, purified MHC/direct/fluorescence; filed as Kd, often an IC50 or EC50 that approximates it; ≥ and ≤ were set here for values at or beyond the usual limits of such assays; settings: source organism: Mycobacterium tuberculosis variant bovis BCG str. Pasteur 1173P2
[25] = target: HLA-A*29:02; test: as above
[26] = target: HLA-B*08:02; test: as above; settings: source organism: Brucella suis 1330
[27] = target: HLA-B*18:01; test: as above
[28] = target: HLA-B*44:02; test: as above
[29] = target: HLA-B*46:01; test: as above
[30] = target: HLA-B*57:01; test: as above
[31] = target: HLA-A*02:11; test: as above; settings: source organism: Zaire ebolavirus
[32] = target: HLA-A*02:12; test: as above; settings: source organism: Zaire ebolavirus
[33] = target: HLA-A*68:02; test: as above; settings: source organism: Zaire ebolavirus
[34] = target: HLA-A*26:01; test: IEDB peptide-MHC binding, purified MHC/competitive/fluorescence; filed as Kd, often an IC50 or EC50 that approximates it; ≥ and ≤ were set here for values at or beyond the usual limits of such assays; settings: source organism: Zaire ebolavirus
[35] = target: HLA-B*15:17; test: as above; settings: source organism: Zaire ebolavirus
[36] = target: HLA-B*27:03; test: as above; settings: source organism: Zaire ebolavirus
[37] = target: HLA-B*39:01; test: as above; settings: source organism: Zaire ebolavirus
[38] = target: HLA-B*51:01; test: as above; settings: source organism: Zaire ebolavirus
[39] = target: HLA-A*23:01; test: as above; settings: source organism: Bacillus cereus ATCC 14579
[40] = source organism: Zaire ebolavirus
[41] = source organism: Vaccinia virus
[42] = source organism: Yersinia pestis Antiqua
[43] = source organism: Yersinia pestis
[44] = source organism: Orthohantavirus hantanense
[45] = source organism: Corynebacterium glutamicum
[46] = source organism: Treponema denticola
[47] = source organism: Sudan ebolavirus - Maleo (1979)
[48] = source organism: Sudan ebolavirus
[49] = source organism: Aggregatibacter actinomycetemcomitans

Sequence: AVSHLTTLA
- IC50 [1, 40]: 3.08 µM
- IC50 [2, 40]: ≥ 135 µM

Sequence: YFNVLDEKY
- IC50 [3, 41]: 33 µM
- IC50 [2, 41]: ≥ 283 µM

Sequence: RYQRMTGGY
- Kd [4, 42]: ≥ 20 µM
- Kd [5, 42]: ≥ 20 µM
- Kd [6, 42]: ≥ 20 µM
- Kd [7, 43]: 0.00621 µM
- Kd [8, 42]: ≥ 20 µM
- Kd [9, 43]: 2.34 µM
- Kd [10, 43]: 0.388 µM
- Kd [11, 42]: ≥ 20 µM
- Kd [12, 42]: ≥ 20 µM
- Kd [13, 42]: ≥ 20 µM
- Kd [14, 43]: 1.35 µM
- Kd [15, 43]: 2.93 µM
- Kd [16, 42]: ≥ 20 µM
- Kd [17, 42]: ≥ 20 µM

Sequence: NYYAPRIQF
- Kd [18, 44]: 0.0059 µM
- Kd [7, 44]: 0.0074 µM
- Kd ([9]; source organism: Hantaan virus Q32): ≥ 20 µM

- Kd [4, 45]: 3.13 µM
- Kd [5, 45]: 0.115 µM
- Kd [6, 45]: ≥ 20 µM
- Kd [19, 45]: 0.021 µM
- Kd [7, 45]: 0.00444 µM
- Kd [8, 45]: ≥ 20 µM
- Kd [9, 45]: 0.0317 µM
- Kd [12, 45]: 6.67 µM
- Kd [13, 45]: ≥ 20 µM
- Kd [14, 45]: ≥ 20 µM
- Kd [15, 45]: ≥ 20 µM
- Kd [16, 45]: ≥ 20 µM
- Kd [17, 45]: 0.444 µM
Sequence: ATQPVHWFL

Sequence: LTITYSSSM
- Kd ([8]; source organism: Influenza A virus (A/swine/Miyagi/5/2003(H1N2))): 0.0618 µM
- Kd [20]: 1.18 µM

Sequence: TVCGGIMFL
- Kd ([21]; source organism: human gammaherpesvirus 4): 2.47 µM

- Kd ([21]; source organism: Rattus norvegicus): 0.239 µM
Sequence: ILMEHIHKL

Sequence: IIIAVARKH
- IC50 ([1]; source organism: Variola virus): 50.9 µM
- IC50 ([22]; source organism: Variola virus): 35.5 µM
- IC50 ([23]; source organism: Variola virus): 14.5 µM
- IC50 ([3]; source organism: Variola virus): 2.98 µM
- IC50 ([2]; source organism: Variola virus): 36.4 µM

Sequence: KSRRFTVRF
- Kd ([17]; source organism: Mycobacterium tuberculosis): 0.422 µM
- Kd ([21]; source organism: Mycobacterium tuberculosis variant bovis BCG str. Pasteur 1173P2): ≥ 20 µM

Sequence: SQVPKLLLW
- IC50 ([2]; source organism: Variola virus): ≥ 121 µM

Sequence: RQDEVGTPF
- Kd [5, 46]: 2.01 µM
- Kd [11, 46]: ≥ 20 µM
- Kd [24]: ≤ 0.001 µM

Sequence: KLFSYGTLI
- IC50 ([1]; source organism: Variola virus): 0.61 µM
- IC50 ([22]; source organism: Variola virus): 5.5 µM
- IC50 ([2]; source organism: Variola virus): 26.2 µM

Sequence: YQRRRRFAI
- Kd ([4]; source organism: Brucella suis): ≥ 20 µM
- Kd ([5]; source organism: Brucella suis): ≥ 20 µM
- Kd ([6]; source organism: Brucella suis): ≥ 20 µM
- Kd ([25]; source organism: Brucella suis): ≥ 20 µM
- Kd ([11]; source organism: Brucella suis): ≥ 20 µM
- Kd ([12]; source organism: Brucella suis): ≥ 20 µM
- Kd [26]: 0.367 µM
- Kd ([27]; source organism: Brucella suis): ≥ 20 µM
- Kd ([16]; source organism: Brucella suis): ≥ 20 µM
- Kd ([28]; source organism: Brucella suis): ≥ 20 µM
- Kd ([29]; source organism: Brucella suis): ≥ 20 µM
- Kd ([30]; source organism: Brucella suis): ≥ 20 µM
- Kd ([17]; source organism: Brucella suis): ≥ 20 µM

Sequence: MHYKLDEVL
- Kd [4, 47]: ≥ 20 µM
- Kd [5, 47]: ≥ 20 µM
- Kd [31]: ≥ 20 µM
- Kd [32]: ≥ 20 µM
- Kd [6, 47]: ≥ 20 µM
- Kd [19, 47]: ≥ 20 µM
- Kd [18, 40]: ≥ 20 µM
- Kd [7, 40]: ≥ 20 µM
- Kd [25, 47]: ≥ 20 µM
- Kd [10, 47]: ≥ 20 µM
- Kd [33]: ≥ 20 µM
- Kd [11, 47]: ≥ 20 µM
- Kd [12, 47]: ≥ 20 µM
- Kd [13, 47]: ≥ 20 µM
- Kd [14, 47]: ≥ 20 µM
- Kd [27, 47]: ≥ 20 µM
- Kd [15, 47]: ≥ 20 µM
- Kd [16, 47]: ≥ 20 µM
- Kd [28, 47]: ≥ 20 µM
- Kd [29, 47]: ≥ 20 µM
- Kd [30, 47]: ≥ 20 µM
- Kd [17, 47]: ≥ 20 µM
- Kd [34]: ≥ 20 µM
- Kd [35]: ≥ 20 µM
- Kd [36]: ≥ 20 µM
- Kd [37]: 0.0041 µM
- Kd [38]: ≥ 20 µM

Sequence: RAFRNLNVT
- IC50 [1, 41]: 48.3 µM
- IC50 [2, 41]: ≥ 77.9 µM

Sequence: LYSLWTKRK
- Kd [39]: 0.245 µM

Sequence: ILFQKAFSM
- IC50 [1, 48]: 0.626 µM
- IC50 [22, 48]: 15.7 µM
- IC50 [23, 48]: 54.8 µM
- IC50 [3, 48]: 0.336 µM
- IC50 [2, 48]: 4.24 µM

- Kd [4, 49]: 0.111 µM
- Kd [5, 49]: ≥ 20 µM
- Kd [6, 49]: ≥ 20 µM
- Kd [19, 49]: ≥ 20 µM
- Kd [7, 49]: ≥ 20 µM
- Kd [8, 49]: ≥ 20 µM
- Kd [9, 49]: ≥ 10 µM
- Kd [10, 49]: ≥ 20 µM
- Kd [11, 49]: ≥ 20 µM
- Kd [12, 49]: ≥ 20 µM
- Kd [13, 49]: ≥ 20 µM
- Kd [14, 49]: 6.28 µM
- Kd [15, 49]: ≥ 20 µM
- Kd [16, 49]: ≥ 20 µM
- Kd [17, 49]: 0.663 µM
Sequence: RSEVELCIY

Sequence: VTTPARTAF
- Kd ([17]; source organism: Mycobacterium avium 104): 1.1 µM
- Kd ([21]; source organism: Mycobacterium tuberculosis C): ≥ 20 µM
